Test results from PMC4693281.

B1: zona pellucida glycoprotein ZP3: ZP3(32–178)N124D (protein)
parent chain: MGPCSRLFVCFLLWGSTELCSPQPFWDDETERFRPSKPPAVMVECQEAQLVVTVDKDLFGTGKLIRPADLTLGPDNCEPLASADTDGVVRFAVGLHECGNILQVTDNALVYSTFLLHNPRPAGNLSILRTNRAEVPIECHYPRQGNVSSWAIQPTWVPFRTTVFSEEKLVFSLRLMEENWSAEKMTPTFQLGDRAHLQAQVHTGSHVPLRLFVDHCVASLTPDWSTSPYHTIVDFHGCLVDGLTDASSAFKAPRPRPEILQFTVDVFRFANDSRNMIYITCHLKVTPVDRVPDQLNKACSFSKSSNRWSPVEGPTDICRCCSKGRCGISGRSMRLSHREGRPVPRSRRHVTEEADVTVGPLIFLRKMNDRGVEGPTSSPPLVMLGLGLATVMTLTLAAIVLGLTGRLRAASHPVCPVSASQ
B2: zona pellucida glycoprotein ZP3: ZP3(32–178)N146D (protein)
parent chain: MGPCSRLFVCFLLWGSTELCSPQPFWDDETERFRPSKPPAVMVECQEAQLVVTVDKDLFGTGKLIRPADLTLGPDNCEPLASADTDGVVRFAVGLHECGNILQVTDNALVYSTFLLHNPRPAGNLSILRTNRAEVPIECHYPRQGNVSSWAIQPTWVPFRTTVFSEEKLVFSLRLMEENWSAEKMTPTFQLGDRAHLQAQVHTGSHVPLRLFVDHCVASLTPDWSTSPYHTIVDFHGCLVDGLTDASSAFKAPRPRPEILQFTVDVFRFANDSRNMIYITCHLKVTPVDRVPDQLNKACSFSKSSNRWSPVEGPTDICRCCSKGRCGISGRSMRLSHREGRPVPRSRRHVTEEADVTVGPLIFLRKMNDRGVEGPTSSPPLVMLGLGLATVMTLTLAAIVLGLTGRLRAASHPVCPVSASQ
B3: zona pellucida glycoprotein ZP3: ZP3(32–178)N124,146D (protein)
parent chain: MGPCSRLFVCFLLWGSTELCSPQPFWDDETERFRPSKPPAVMVECQEAQLVVTVDKDLFGTGKLIRPADLTLGPDNCEPLASADTDGVVRFAVGLHECGNILQVTDNALVYSTFLLHNPRPAGNLSILRTNRAEVPIECHYPRQGNVSSWAIQPTWVPFRTTVFSEEKLVFSLRLMEENWSAEKMTPTFQLGDRAHLQAQVHTGSHVPLRLFVDHCVASLTPDWSTSPYHTIVDFHGCLVDGLTDASSAFKAPRPRPEILQFTVDVFRFANDSRNMIYITCHLKVTPVDRVPDQLNKACSFSKSSNRWSPVEGPTDICRCCSKGRCGISGRSMRLSHREGRPVPRSRRHVTEEADVTVGPLIFLRKMNDRGVEGPTSSPPLVMLGLGLATVMTLTLAAIVLGLTGRLRAASHPVCPVSASQ

Assay: competitive inhibition, sperm binding to ZP-coated wells
Settings: glycan lost; control: ZP3(32–178)/ZP4

Protein	other: inhibition of sperm-ZP binding
B1	no change
B2	decreases
B3	decreases
